Test results from patent EP4659808A2 (Sanofi, dated 2025).

Target: T1, human beta-DG extracellular domain (human, UniProt Q14118 654-749, biotinylated in the Example 6 ELISA)
T1 construct: extracellular domain; Expression of the soluble human protein is not described; also called hBeta-DG; hbeta-DG
T1 sequence (looked up): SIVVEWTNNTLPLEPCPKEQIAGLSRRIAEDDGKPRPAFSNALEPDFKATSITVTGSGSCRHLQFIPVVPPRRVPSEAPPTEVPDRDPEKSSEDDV
Assay: SPR (Biacore T100), antibody captured on Protein G chip, BDG in flow, 1:1 model

B1: triAb 3439 (bispecific antibody, human IgG1, kappa)
light 1: EIVLTQSPDFLSVTPKEKVTLTCRASQSISNNLHWYQQKSDQSPKLLIKYASQSISGIPSRFSGSGSGTDFTLTINSVEAEDAATYFCQQSKSWPRTFGGGTKLEIKDKTHTEIVLTQSPDFLSVTPGEKVTLTCRASQSISNYLHWYQQKSDQSPKLLIKYASQSISGVPSRFSGSGSGTDFTLTISSVEAEDFATYFCQQSKSWPRTFGGGTKLEIKDKTHTRTVAAPSVFIFPPSDEQLKSGTASVVCLLNNFYPREAKVQWKVDNALQSGNSQESVTEQDSKDSTYSLSSTLTLSKADYEKHKVYACEVTHQGLSSPVTKSFNRGEC
heavy 1: EVQLVESGGGLVQPGGSLRLSCAASGFTFSSYTMSWVRQAPGKGLEWVATISSSGDNTYYPDSVKGRFTISRDNSKNTLYLQMSSLRAEDTALYYCARFDYGSSLDSWGQGTTLTVSSDKTHTEVQLVESGGGLVKPGGSLRLSCAASGFTFSSYTMSWVRQAPGKGLEWVASISSSGSNTYYPDSVKGRFTISRDNAKNNLYLQMNSLRAEDTALYYCARFDYGSSLDSWGQGTLLTVSSDKTHTASTKGPSVFPLAPSSKSTSGGTAALGCLVKDYFPEPVTVSWNSGALTSGVHTFPAVLQSSGSLSSVVTVPSSSLGTQTYICNVNHKPSNTKVDKKVEPKSCDKTHTCPPCPAPELLGGPSVFLFPPKPKDTLYITREPEVTCVVVDVSHEDPEVKFNWYVDGVEVHNAKTKPREEQYNNASRVVSVLTVLHQDWLNGKEYKCKVSNKALPAPIEKTISKAKGQPREPQVYTLPPCRDELTKNQVSLWCLVKGFYPSDIAVEWESNGQPENNYKTTPPVLDSDGSFFKKLTVDKSRWQQGNVFSCSVMHEALHNHYTQKSLSLSPG
heavy 2: QVQLVQSGAEVVKPGSSVKVSCEASGFTFTDSVITWVRQRPGQGLEWIGEIYPGSGNFYYNEKFQGRVTITADKSTSTAYMELSSLRSEDTAVYFCAMRRSSWGQGTLVTVSSASTKGPSVFPLAPSSKSTSGGTAALGCLVKDYFPEPVTVSWNSGALTSGVHTFPAVLQSSGSLSSVVTVPSSSLGTQTYICNVNHKPSNTKVDKKVEPKSCDKTHTCPPCPAPELLGGPSVFLFPPKPKDTLYITREPEVTCVVVDVSHEDPEVKFNWYVDGVEVHNAKTKPREEQYNNASRVVSVLTVLHQDWLNGKEYKCKVSNKALPAPIEKTISKAKGQPREPQVCTLPPSRDELTKNQVSLSCAVKGFYPSDIAVEWESNGQPENNYKTTPPVLDSDGSFFLVSKLTVDKSRWQQGNVFSCSVMHEALHNRFTQKSLSLSPG
light 2: DVVMTQTPLSLSVTPGQPASISCKSSQTIVHSNSKTYLEWYLQKPGQSPQLLIYKVSSRFSGVPDRFSGSGSGTDFTLKISRVEAEDVGVYYCFQGSHVPLTFGQGTKLEIKRTVAAPSVFIFPPSDEQLKSGTASVVCLLNNFYPREAKVQWKVDNALQSGNSQESVTEQDSKDSTYSLSSTLTLSKADYEKHKVYACEVTHQGLSSPVTKSFNRGEC
- Kd: 1.3 nM
- koff: 0.004 s⁻¹
- kon: 3.07e+06 M⁻¹ s⁻¹
